Source: the supplement of paper PMC10065799, “High-throughput profiling of sequence recognition by tyrosine kinases and SH2 domains using bacterial peptide display” (eLife, 2023)

Tests used:
[1] = system: AncSZ; assay: phosphorylation enrichment, bacterial display (enrichment ratio); higher = better substrate or ligand; peptides without Tyr show the background
[2] = molecular target: EPHB1 (UniProt P54762); assay: as above
[3] = molecular target: EPHB2 (UniProt P29323); assay: as above
[4] = molecular target: FGFR1 (UniProt P11362); assay: as above
[5] = molecular target: FGFR3 (UniProt P22607); assay: as above
[6] = system: Fer (mouse); assay: as above
[7] = molecular target: Fes (UniProt P07332); assay: as above
[8] = molecular target: Fyn (UniProt P06241); assay: as above
[9] = molecular target: Hck (UniProt P08631); assay: as above
[10] = molecular target: Jak2 (UniProt O60674); assay: as above
[11] = molecular target: MERTK (UniProt Q12866); assay: as above
[12] = system: c-Abl (mouse); assay: as above
[13] = system: c-Src; assay: as above
[14] = molecular target: Grb2 SH2 (UniProt P62993); assay: SH2 binding enrichment of the phosphorylated peptide, bacterial display (enrichment ratio); higher = better substrate or ligand; peptides without Tyr show the background
[15] = molecular target: SHP2-C SH2; assay: as above
[16] = molecular target: c-Src SH2; assay: as above
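For SH2 binding enrichment of the phosphorylated peptide, bacterial display in this document: peptide library displayed on the E. coli surface as eCPX fusions, selected cells deep-sequenced, score is each peptide's frequency after selection divided by its frequency in the input.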
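For phosphorylation enrichment, bacterial display in this document: 11-residue human phosphosite peptides and single-mutation variants displayed on the E. coli surface, counted by deep sequencing, each peptide's frequency after selection divided by its frequency in the unselected input library; frequency after pTyr selection over input frequency; kinase dosed for 20-30% of maximal phosphorylation in three min.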

Chain of Jak2 (O60674 whole entry, looked up): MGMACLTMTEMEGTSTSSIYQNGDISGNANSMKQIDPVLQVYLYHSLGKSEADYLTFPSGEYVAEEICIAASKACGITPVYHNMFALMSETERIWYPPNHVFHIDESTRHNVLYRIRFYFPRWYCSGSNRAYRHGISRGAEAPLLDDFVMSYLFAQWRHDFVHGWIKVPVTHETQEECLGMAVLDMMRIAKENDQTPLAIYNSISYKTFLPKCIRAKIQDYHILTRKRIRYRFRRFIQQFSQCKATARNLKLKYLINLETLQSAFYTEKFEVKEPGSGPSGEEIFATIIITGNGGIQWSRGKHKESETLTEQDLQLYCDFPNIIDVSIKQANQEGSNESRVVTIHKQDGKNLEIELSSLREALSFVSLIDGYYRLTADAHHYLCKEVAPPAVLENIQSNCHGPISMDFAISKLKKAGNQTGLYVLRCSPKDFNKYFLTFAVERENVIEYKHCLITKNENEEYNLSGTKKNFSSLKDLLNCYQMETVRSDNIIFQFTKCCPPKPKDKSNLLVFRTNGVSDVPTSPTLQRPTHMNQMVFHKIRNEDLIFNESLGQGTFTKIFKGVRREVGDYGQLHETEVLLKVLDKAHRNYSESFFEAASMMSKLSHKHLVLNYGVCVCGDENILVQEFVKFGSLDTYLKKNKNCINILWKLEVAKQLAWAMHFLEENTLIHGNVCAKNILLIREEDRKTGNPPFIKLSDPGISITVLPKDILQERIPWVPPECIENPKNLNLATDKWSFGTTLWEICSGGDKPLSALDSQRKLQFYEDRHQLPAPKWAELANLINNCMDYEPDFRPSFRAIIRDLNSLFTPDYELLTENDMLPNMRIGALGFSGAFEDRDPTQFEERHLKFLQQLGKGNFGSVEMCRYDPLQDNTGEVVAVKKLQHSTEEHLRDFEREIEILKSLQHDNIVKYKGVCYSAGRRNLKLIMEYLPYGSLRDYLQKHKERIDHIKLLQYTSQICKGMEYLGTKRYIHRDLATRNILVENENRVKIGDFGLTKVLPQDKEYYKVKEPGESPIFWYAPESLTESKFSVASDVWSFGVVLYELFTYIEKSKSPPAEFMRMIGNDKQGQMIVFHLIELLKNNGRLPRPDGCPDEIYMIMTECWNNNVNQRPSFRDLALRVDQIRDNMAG
Chain of EPHB2 (P29323 whole entry, looked up): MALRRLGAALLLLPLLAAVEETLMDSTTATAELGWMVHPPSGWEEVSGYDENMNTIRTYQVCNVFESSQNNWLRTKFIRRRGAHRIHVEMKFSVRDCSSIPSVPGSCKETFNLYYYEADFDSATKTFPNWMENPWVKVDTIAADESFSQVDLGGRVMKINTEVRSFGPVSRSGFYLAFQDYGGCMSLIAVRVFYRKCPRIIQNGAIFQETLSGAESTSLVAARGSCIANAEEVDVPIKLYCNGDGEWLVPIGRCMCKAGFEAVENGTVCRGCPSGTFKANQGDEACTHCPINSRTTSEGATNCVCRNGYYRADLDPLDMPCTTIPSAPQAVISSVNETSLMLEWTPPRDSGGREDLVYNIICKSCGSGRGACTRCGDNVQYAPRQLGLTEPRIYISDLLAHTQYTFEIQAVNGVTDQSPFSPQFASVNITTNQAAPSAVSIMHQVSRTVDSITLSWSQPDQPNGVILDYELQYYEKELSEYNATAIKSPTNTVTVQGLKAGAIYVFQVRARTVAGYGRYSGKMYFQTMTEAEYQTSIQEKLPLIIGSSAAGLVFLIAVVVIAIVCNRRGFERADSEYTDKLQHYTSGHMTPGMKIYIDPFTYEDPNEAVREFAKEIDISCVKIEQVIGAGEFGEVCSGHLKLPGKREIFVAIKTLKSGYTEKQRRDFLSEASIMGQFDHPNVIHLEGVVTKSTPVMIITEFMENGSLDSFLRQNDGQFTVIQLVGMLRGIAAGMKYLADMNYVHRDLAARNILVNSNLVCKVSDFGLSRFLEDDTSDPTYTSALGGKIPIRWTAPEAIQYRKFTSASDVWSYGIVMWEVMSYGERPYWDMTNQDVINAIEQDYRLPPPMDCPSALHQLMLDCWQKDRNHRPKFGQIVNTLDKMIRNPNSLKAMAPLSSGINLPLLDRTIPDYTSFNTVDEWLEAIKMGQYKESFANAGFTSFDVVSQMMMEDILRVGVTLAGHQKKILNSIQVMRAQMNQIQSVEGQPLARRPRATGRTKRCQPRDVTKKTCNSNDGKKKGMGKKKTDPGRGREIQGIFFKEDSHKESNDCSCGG
Chain of EPHB1 (P54762 whole entry, looked up): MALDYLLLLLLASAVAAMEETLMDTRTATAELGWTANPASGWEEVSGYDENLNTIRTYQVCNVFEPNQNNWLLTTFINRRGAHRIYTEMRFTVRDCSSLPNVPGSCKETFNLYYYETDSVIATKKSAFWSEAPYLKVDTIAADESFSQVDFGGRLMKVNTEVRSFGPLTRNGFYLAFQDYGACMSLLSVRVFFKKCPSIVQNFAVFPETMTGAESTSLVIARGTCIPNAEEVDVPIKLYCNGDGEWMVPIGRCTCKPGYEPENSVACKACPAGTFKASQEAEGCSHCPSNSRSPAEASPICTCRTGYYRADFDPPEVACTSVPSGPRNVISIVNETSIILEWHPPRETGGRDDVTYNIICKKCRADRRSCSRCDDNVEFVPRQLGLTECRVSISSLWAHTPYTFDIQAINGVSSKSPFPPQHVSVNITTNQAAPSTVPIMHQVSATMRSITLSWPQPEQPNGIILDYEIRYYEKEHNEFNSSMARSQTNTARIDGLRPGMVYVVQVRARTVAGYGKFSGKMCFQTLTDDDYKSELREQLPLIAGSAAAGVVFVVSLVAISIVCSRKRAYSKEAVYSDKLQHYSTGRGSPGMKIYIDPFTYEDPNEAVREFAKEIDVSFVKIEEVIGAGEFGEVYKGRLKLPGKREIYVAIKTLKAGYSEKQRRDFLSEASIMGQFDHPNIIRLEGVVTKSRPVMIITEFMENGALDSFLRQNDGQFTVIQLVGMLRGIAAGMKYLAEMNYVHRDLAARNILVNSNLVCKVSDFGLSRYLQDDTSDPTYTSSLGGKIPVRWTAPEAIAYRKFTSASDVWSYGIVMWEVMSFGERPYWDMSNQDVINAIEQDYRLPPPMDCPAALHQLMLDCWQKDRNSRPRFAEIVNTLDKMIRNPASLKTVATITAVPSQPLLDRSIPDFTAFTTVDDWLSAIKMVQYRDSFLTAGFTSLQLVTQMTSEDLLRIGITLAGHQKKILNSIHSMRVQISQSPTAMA
Chain of FGFR3 (P22607 whole entry, looked up): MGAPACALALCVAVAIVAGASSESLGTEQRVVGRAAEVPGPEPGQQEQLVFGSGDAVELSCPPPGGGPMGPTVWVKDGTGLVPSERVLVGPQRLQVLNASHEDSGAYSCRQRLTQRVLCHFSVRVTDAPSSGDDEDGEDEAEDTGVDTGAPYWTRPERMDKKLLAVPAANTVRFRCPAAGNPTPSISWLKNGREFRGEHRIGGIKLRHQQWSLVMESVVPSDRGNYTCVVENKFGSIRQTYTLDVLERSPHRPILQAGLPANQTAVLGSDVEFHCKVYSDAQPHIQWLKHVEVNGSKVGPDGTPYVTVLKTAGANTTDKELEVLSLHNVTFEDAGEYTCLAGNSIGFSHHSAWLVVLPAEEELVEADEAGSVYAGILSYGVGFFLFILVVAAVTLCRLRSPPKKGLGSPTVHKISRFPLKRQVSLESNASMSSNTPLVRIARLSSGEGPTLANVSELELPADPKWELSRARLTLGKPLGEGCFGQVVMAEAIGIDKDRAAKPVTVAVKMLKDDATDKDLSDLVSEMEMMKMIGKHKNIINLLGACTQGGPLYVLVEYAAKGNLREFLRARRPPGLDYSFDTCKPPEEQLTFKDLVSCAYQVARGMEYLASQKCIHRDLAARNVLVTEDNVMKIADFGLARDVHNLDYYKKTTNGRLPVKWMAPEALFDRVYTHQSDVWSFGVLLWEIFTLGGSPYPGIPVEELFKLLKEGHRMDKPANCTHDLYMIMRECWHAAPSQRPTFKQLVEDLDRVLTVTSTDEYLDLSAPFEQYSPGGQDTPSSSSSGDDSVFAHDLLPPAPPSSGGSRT
Chain of MERTK (Q12866 whole entry, looked up): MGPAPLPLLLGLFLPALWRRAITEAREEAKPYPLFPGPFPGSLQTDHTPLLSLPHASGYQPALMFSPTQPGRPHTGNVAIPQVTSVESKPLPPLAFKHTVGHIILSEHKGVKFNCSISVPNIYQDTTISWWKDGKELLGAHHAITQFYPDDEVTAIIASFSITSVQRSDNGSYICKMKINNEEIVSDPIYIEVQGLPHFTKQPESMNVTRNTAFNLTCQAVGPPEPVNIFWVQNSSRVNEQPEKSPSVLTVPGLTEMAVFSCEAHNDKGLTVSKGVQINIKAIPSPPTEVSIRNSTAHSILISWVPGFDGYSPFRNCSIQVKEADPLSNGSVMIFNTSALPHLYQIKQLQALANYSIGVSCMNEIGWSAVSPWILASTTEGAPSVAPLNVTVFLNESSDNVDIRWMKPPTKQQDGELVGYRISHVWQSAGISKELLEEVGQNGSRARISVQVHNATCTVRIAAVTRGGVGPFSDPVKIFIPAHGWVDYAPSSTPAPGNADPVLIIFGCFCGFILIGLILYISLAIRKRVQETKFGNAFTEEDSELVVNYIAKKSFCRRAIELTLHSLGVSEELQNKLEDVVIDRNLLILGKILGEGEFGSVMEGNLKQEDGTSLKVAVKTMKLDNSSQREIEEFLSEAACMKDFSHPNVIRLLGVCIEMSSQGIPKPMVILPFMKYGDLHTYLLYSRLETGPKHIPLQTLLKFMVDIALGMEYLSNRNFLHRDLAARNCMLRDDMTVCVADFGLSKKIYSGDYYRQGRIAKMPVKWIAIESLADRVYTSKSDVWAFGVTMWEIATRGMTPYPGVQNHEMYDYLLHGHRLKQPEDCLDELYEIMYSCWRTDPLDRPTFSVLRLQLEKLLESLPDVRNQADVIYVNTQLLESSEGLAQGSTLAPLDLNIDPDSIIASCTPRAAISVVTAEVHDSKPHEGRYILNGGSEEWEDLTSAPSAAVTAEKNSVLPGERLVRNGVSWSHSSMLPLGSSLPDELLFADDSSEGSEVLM

| Sequence | SH2 binding enrichment [14] | SH2 binding enrichment [15] | SH2 binding enrichment [16] | phosphorylation enrichment [1] | phosphorylation enrichment [2] | phosphorylation enrichment [3] | phosphorylation enrichment [4] | phosphorylation enrichment [5] | phosphorylation enrichment [6] | phosphorylation enrichment [7] | phosphorylation enrichment [8] | phosphorylation enrichment [9] | phosphorylation enrichment [10] | phosphorylation enrichment [11] | phosphorylation enrichment [12] | phosphorylation enrichment [13] |
| --- | --- | --- | --- | --- | --- | --- | --- | --- | --- | --- | --- | --- | --- | --- | --- | --- |
| QMVGMYASFYM [AVPR2_Y124_S127F] | 0.784 | 0.842 | 0.538 | 1.35 | 2.49 | 1.92 | 0.45 | 1 | 3.65 | 1.65 | 7.85 | 5.46 | 1.79 | 4.41 | 3.61 | 6.92 |
| QEGPEYWDRET [HLA-A_Y83_Q86R] | 0.787 | 0.539 | 0.533 | 2.03 | 1.16 | 0.946 | 0.85 | 1.08 | 0.92 | 2.45 | 0.692 | 0.871 | 2.21 | 0.924 | 1.44 | 0.814 |
| EEKKKYYDTKI [CASP5_Y103] | 0.698 | 0.669 | 0.432 | 0.818 | 0.442 | 0.421 | 0.468 | 0.515 | 0.465 | 0.853 | 0.479 | 0.4 | 0.875 | 0.366 | 0.618 | 0.34 |
| EVLKNYSQQKD [GOLGA4_Y1551_N1552S] | 0.887 | 0.782 | 0.501 | 0.545 | 0.419 | 0.456 | 0.404 | 0.56 | 0.417 | 0.609 | 0.438 | 0.476 | 0.657 | 0.458 | 0.494 | 0.433 |
| SSYDIYHLSRE [KIR3DL2_Y253] | 0.842 | 0.816 | 0.73 | 1.27 | 2.42 | 3.54 | 2.73 | 2.01 | 1.74 | 0.851 | 13 | 12.2 | 0.724 | 6.05 | 1.18 | 9.33 |
| LEISPYMLSGR [LRRK2_Y1718] | 0.9 | 0.722 | 0.781 | 0.852 | 1.02 | 1.1 | 0.718 | 0.652 | 0.806 | 1.28 | 1.44 | 0.932 | 0.64 | 0.588 | 0.491 | 0.929 |
| QTENKYVSVSG [EIF2AK3_Y565_D566V] | 0.707 | 2.59 | 0.828 | 0.61 | 0.808 | 0.683 | 0.527 | 0.581 | 0.626 | 1.51 | 0.627 | 0.85 | 0.754 | 0.548 | 0.938 | 0.693 |
| ALWFIYSHTRS [ENG_Y614_YF] | 1.13 | 0.81 | 0.552 | 1.01 | 0.597 | 0.445 | 0.44 | 0.676 | 0.45 | 1.5 | 0.423 | 0.448 | 0.956 | 0.34 | 0.697 | 0.379 |
| RFLRGYRQFAF [HLA-A_Y137_D140Y_YF] | 0.895 | 0.521 | 0.412 | 1.19 | 0.67 | 0.514 | 0.643 | 0.579 | 0.678 | 0.908 | 0.583 | 0.519 | 0.661 | 0.587 | 0.661 | 0.76 |

Second part, led by results:

| SH2 binding enrichment [14] | SH2 binding enrichment [15] | SH2 binding enrichment [16] | Sequence | phosphorylation enrichment [1] | phosphorylation enrichment [2] | phosphorylation enrichment [3] | phosphorylation enrichment [4] | phosphorylation enrichment [5] | phosphorylation enrichment [6] | phosphorylation enrichment [7] | phosphorylation enrichment [8] | phosphorylation enrichment [9] | phosphorylation enrichment [10] | phosphorylation enrichment [11] | phosphorylation enrichment [12] | phosphorylation enrichment [13] |
| --- | --- | --- | --- | --- | --- | --- | --- | --- | --- | --- | --- | --- | --- | --- | --- | --- |
| 0.872 | 0.67 | 0.619 | TVVGLYQKSSL [MYH7_Y609] | 0.973 | 0.567 | 0.638 | 0.483 | 0.75 | 0.675 | 0.988 | 0.55 | 0.685 | 0.849 | 0.627 | 0.793 | 0.483 |
| 0.63 | 0.571 | 0.369 | VGSEDYGRDLT [SPTAN1_Y1792] | 1.1 | 0.626 | 0.587 | 0.564 | 1.04 | 0.621 | 1.44 | 0.588 | 0.592 | 1.24 | 0.456 | 1.04 | 0.513 |
| 0.783 | 0.816 | 0.42 | AEFGLYGAMVR [VSX2_Y222_YF] | 1.07 | 0.741 | 0.719 | 0.538 | 0.715 | 0.828 | 1.21 | 5.3 | 6.05 | 0.868 | 0.674 | 0.678 | 3.61 |
| 0.9 | 0.672 | 0.548 | MKKMHYVDPDH [ST3GAL5_Y99] | 0.512 | 0.32 | 0.311 | 0.338 | 0.357 | 0.32 | 0.513 | 0.364 | 0.367 | 0.392 | 0.332 | 0.41 | 0.402 |
| 0.823 | 0.935 | 0.503 | PNRILYGDFQQ [MYH7_Y715_R719Q] | 0.601 | 0.504 | 0.516 | 0.422 | 0.475 | 0.375 | 0.798 | 4.31 | 1.42 | 0.861 | 0.408 | 0.549 | 3.04 |
| 0.982 | 0.655 | 0.691 | RLAQRYLIWEC [SCN5A_Y694] | 1.09 | 0.943 | 0.914 | 0.647 | 0.841 | 0.546 | 1.66 | 0.595 | 0.679 | 1.34 | 0.609 | 0.86 | 0.492 |
| 1.39 | 6.21 | 1.03 | NFDRIYIYHLR [MYOF_Y1137_V1136I] | 1.17 | 0.701 | 0.648 | 0.548 | 0.787 | 0.611 | 1.2 | 0.732 | 0.742 | 1.1 | 0.63 | 0.734 | 0.923 |
| 0.775 | 0.647 | 0.655 | HEHKGYNANFC [TGFB2_Y341_P338H] | 0.603 | 0.505 | 0.727 | 0.7 | 0.951 | 0.698 | 0.928 | 0.659 | 0.832 | 0.642 | 0.612 | 0.464 | 0.542 |
